Starred links: 1 amine or outer side, 2 acyl side, 3 side chain; linkers in the order of their positions; H or OH if unused. Positions of bridges follow the written chain, without caps; N, C: chain ends. Non-standard residues stand in square brackets, D forms with d. *: point of attachment. αMeNva(5-ylidene) = C[C@@](CCC=[*:3])(N[*:1])C(=O)[*:2]; S8 = C=CCCCCCC[C@](C)(N)C(=O)O; SeMet = C[Se]CC[C@H](N)C(=O)O; S5 = C=CCCC[C@](C)(N)C(=O)O; Nle = CCCC[C@H](N)C(=O)O; For = O=C*

In experiment [1] the target is T1, hDcn1^P (potentiating neddylation / PONY domain of human Dcn1, DCUN1D1) (Homo sapiens, UniProt Q96GG9 62-259).
T1 construct: also called DCUN1D1^P; SCCRO PONY domain
The experiment can be described thus: ITC, peptide titrated into Dcn PONY domain. The protocol:
(§1) Protein samples were buffer matched by desalting over a NAP-5 column (GE Healthcare) into 50 mM Hepes, 125 mM NaCl, 1 mM BME, pH 7.0 (ITC buffer). Peptides were dissolved by weight to a final concentration of 10 mM in ITC buffer and diluted further in ITC buffer as required for the experiments. […] The peptide ligands (4 mM) were constantly injected (1.5 μl). The interval time between each injection was 3 minutes and the duration of each injection was 3 seconds. […] Peptide ligands (250 μM) were constantly injected (2.5 μl). The interval time between each injection was three minutes and the duration of each injection was 5 seconds. […] The interval time between each injection was 3 minutes and the duration of each injection was 5 seconds. Obtained spectra were evaluated using Origin (V 7.0) to determine heats of binding and Kd values.

Experiment [2] addresses T2, yDcn1^P (potentiating neddylation / PONY domain of Saccharomyces cerevisiae Dcn1) (Saccharomyces cerevisiae, UniProt Q12395 70-269).
T2 construct: NEDD8 co-E3; Expressed in E. coli
T2 sequence: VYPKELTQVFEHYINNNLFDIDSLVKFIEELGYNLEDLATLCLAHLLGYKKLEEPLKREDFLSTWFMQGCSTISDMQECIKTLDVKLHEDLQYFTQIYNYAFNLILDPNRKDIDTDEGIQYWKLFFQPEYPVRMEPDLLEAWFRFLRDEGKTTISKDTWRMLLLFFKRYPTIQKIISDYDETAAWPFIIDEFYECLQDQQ
The experiment can be described thus: ITC, peptide titrated into yDcn1^P. How it is done:
(§2) To gain insights into mechanistic roles of Ubc12 N-terminal acetylation, isothermal titration calorimetry (ITC) was used to quantify interactions with peptides corresponding to the N-termini of yeast or human Ubc12.
as §1
(In general: Isothermal titration calorimetry measures the heat released or taken up as one component is titrated into another.)

Experiment [3] concerns the target T3, yE1 for yNedd8 (Ula1-Uba3) (Saccharomyces cerevisiae, UniProt Q12059 1-462, limits assumed).
T3 construct: Heterodimeric E1 expressed in E. coli as described in earlier publications
T3 sequence 1: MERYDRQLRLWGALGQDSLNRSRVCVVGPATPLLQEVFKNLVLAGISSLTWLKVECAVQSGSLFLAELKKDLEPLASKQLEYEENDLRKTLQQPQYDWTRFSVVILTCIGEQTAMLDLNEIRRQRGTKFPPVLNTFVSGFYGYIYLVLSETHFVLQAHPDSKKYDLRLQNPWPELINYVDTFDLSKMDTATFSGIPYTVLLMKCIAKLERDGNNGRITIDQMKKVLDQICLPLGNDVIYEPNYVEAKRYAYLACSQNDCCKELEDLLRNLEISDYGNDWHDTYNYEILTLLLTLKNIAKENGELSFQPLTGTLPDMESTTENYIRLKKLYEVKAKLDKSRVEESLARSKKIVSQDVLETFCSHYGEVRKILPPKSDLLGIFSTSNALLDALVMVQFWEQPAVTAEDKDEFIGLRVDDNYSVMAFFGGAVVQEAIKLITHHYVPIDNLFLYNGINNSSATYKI
T3 sequence 2: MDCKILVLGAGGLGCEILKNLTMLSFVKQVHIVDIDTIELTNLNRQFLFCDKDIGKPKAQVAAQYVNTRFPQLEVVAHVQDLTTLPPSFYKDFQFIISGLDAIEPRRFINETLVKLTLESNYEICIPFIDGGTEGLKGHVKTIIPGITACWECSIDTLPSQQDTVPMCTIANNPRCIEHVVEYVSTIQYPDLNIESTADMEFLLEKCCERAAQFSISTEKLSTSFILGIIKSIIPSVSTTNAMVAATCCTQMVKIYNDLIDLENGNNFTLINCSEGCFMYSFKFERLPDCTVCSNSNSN
Briefly: ITC, peptide titrated into yE1. How it is done: as §2, §1

Experiment [4] concerns the target hDcn2^P (PONY domain of human DCUN1D2) (Homo sapiens, UniProt Q6PH85 62-259). Briefly: ITC, peptide titrated into Dcn PONY domain. The protocol: as §1
The target in experiment [5] is T4, hDcn3^P (PONY domain of human DCUN1D3) (Homo sapiens, UniProt Q8IWE4 86-304).
T4 sequence: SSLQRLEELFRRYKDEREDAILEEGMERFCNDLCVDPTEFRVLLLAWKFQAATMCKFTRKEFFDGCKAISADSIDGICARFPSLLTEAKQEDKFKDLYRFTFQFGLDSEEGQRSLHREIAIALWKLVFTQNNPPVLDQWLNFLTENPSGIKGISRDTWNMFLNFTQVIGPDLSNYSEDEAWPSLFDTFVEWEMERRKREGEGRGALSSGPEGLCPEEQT
The experiment can be described thus: ITC, peptide titrated into Dcn PONY domain. How it is done: as §1

For experiment [6], the target named is T1, hDcn1^P (potentiating neddylation / …). Briefly: ITC, two-site fit, first value. The protocol:
as §1

T1 sequence (Q96GG9 62-259): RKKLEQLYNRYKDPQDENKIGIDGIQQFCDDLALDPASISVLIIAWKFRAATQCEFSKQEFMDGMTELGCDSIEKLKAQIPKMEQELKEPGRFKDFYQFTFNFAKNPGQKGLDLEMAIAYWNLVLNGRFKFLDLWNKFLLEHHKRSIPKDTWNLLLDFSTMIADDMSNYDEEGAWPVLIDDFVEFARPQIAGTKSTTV
Chain of hDcn2^P (PONY domain of human DCUN1D2) (Q6PH85 62-259 limits assumed): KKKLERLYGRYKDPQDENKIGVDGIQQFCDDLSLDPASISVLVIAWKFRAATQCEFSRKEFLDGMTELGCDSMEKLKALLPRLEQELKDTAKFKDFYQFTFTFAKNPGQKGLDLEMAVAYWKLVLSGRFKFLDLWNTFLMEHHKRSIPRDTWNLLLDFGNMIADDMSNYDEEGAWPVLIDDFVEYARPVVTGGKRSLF

As for Ac-MIK(Ac)LFSLKQQKKEEESAGGTKGSSKK-NH2 (Synthetic peptide) [hUbc12^Ac1-Ac3-26], in experiment [1], the Kd was 4600 nM.

B1: Acetyl-yUbc12^1-24 peptide (peptide)
peptide: Ac-MLKLRQLQKKKQKENENSSSIQPN-NH2
notes: Synthetic peptide; also called yUbc12^Ac1-24
B1: in experiment [2], the equilibrium dissociation constant (Kd) is 444 nM, the ΔH was 4.15 kcal/mol and the ΔS is 43.6 cal/mol/deg. In addition, in experiment [3], the equilibrium dissociation constant (Kd) was found to be 16 nM, the “N (stoichiometry)” value was found to be 0.99, the ΔH is -11.3 kcal/mol and the ΔS was -3.8 cal/mol/deg.
Take Ac-[SeMet]IKL[S5]SLK[S5]QKK-NH2 (staple 5-9, Stapled synthetic peptide) [hUbc12^Ac1-12 (SeMet) 5, 9]: the Kd in experiment [1] stood at 182 nM.

B2: yUbc12^Ac1-12 (NorLeu) 5, 9 (peptide)
peptide: Ac-[Nle]LKL[S5]QLQ[S5]KKQ-NH2
modifications: staple 5-9
SMILES: CCCC[C@H](NC(C)=O)C(=O)N[C@@H](CC(C)C)C(=O)N[C@@H](CCCCN)C(=O)N[C@@H](CC(C)C)C(=O)N[C@@]1(C)CCCC=CCCC[C@@](C)(C(=O)N[C@@H](CCCCN)C(=O)N[C@@H](CCCCN)C(=O)N[C@@H](CCC(N)=O)C(N)=O)NC(=O)[C@H](CCC(N)=O)NC(=O)[C@H](CC(C)C)NC(=O)[C@H](CCC(N)=O)NC1=O
notes: Stapled synthetic peptide
Take B2: the Kd in experiment [4] stood at 515 nM; in experiment [1], 418 nM.

B3: hUbe2f^Ac1-25 (peptide)
peptide: Ac-MLTLASKLKRDDGLKGSRTAATASD-NH2
notes: Synthetic peptide of the N-terminus of human Ube2f; also called Acetyl-hUbe2f^1-25
The molecule B3 had a Kd in experiment [5] of 2000 nM.
Regarding Ac-MIKLKSLKEQKK-NH2 (bridge 5-9; also: K5-E9 staple, chemistry not given here, Stapled synthetic peptide) [hUbc12^Ac1-12 (Met) KE 5, 9], the dissociation constant (Kd) in experiment [1] amounted to 1060 nM.

B4: hUbc12^Ac1-12 (Met) RR 6, 10 (peptide)
peptide: Ac-MIKLF[(R)‑2‑(4-pentenyl)alanine]LKQ[(R)‑2‑(4-pentenyl)alanine]KK-NH2
modifications: staple 6-10
notes: Stapled synthetic peptide; 'RR' is not explained in the text
Take B4: the Kd in experiment [6] came out at 340 nM.

B5: yUbc12^Ac1-12 (NorLeu) (peptide)
peptide: Ac-[Nle]LKLRQLQKKKQ-NH2
SMILES: CCCC[C@H](NC(C)=O)C(=O)N[C@@H](CC(C)C)C(=O)N[C@@H](CCCCN)C(=O)N[C@@H](CC(C)C)C(=O)N[C@@H](CCCNC(=N)N)C(=O)N[C@@H](CCC(N)=O)C(=O)N[C@@H](CC(C)C)C(=O)N[C@@H](CCC(N)=O)C(=O)N[C@@H](CCCCN)C(=O)N[C@@H](CCCCN)C(=O)N[C@@H](CCCCN)C(=O)N[C@@H](CCC(N)=O)C(N)=O
For the molecule B5, the results for the equilibrium dissociation constant (Kd) in experiment [4] and in experiment [1] were 793 nM and 628 nM, respectively.

B6: hUbc12^Ac1-12 (NorLeu) 5, 9 (peptide)
peptide: Ac-[Nle]IKL[S5]SLK[S5]QKK-NH2
modifications: staple 5-9
SMILES: CCCC[C@H](NC(C)=O)C(=O)N[C@H](C(=O)N[C@@H](CCCCN)C(=O)N[C@@H](CC(C)C)C(=O)N[C@@]1(C)CCCC=CCCC[C@@](C)(C(=O)N[C@@H](CCC(N)=O)C(=O)N[C@@H](CCCCN)C(=O)N[C@@H](CCCCN)C(N)=O)NC(=O)[C@H](CCCCN)NC(=O)[C@H](CC(C)C)NC(=O)[C@H](CO)NC1=O)[C@@H](C)CC
notes: Stapled synthetic peptide
Regarding B6, in experiment [1], the Kd stood at 440 nM.
In the case of Ac-LKLRQLQKKKQKENENSSSIQPN-NH2 (Synthetic peptide lacking Met1) [Acetyl-yUbc12^2-24 peptide], in experiment [2], the ΔH is 3.76 kcal/mol and the ΔS came to 33.4 cal/mol/deg. For the same molecule, in experiment [3], the Kd amounted to 1580 nM, the “N (stoichiometry)” value was determined as 0.92, the ΔH is -9.62 kcal/mol and the ΔS is -7.21 cal/mol/deg.
Ac-MIKLFKLKQEKK-NH2 (bridge 6-10; also: K6-E10 staple, chemistry not given here, Stapled synthetic peptide) [hUbc12^Ac1-12 (Met) KE 6, 10]: the Kd in experiment [1] was determined as 483 nM.

B7: hUbc12^Formyl-1-26 (peptide)
peptide: For-MIKLFSLKQQKKEEESAGGTKGSSKK-NH2
SMILES: CC[C@H](C)[C@H](NC(=O)[C@H](CCSC)NC=O)C(=O)N[C@@H](CCCCN)C(=O)N[C@@H](CC(C)C)C(=O)N[C@@H](Cc1ccccc1)C(=O)N[C@@H](CO)C(=O)N[C@@H](CC(C)C)C(=O)N[C@@H](CCCCN)C(=O)N[C@@H](CCC(N)=O)C(=O)N[C@@H](CCC(N)=O)C(=O)N[C@@H](CCCCN)C(=O)N[C@@H](CCCCN)C(=O)N[C@@H](CCC(=O)O)C(=O)N[C@@H](CCC(=O)O)C(=O)N[C@@H](CCC(=O)O)C(=O)N[C@@H](CO)C(=O)N[C@@H](C)C(=O)NCC(=O)NCC(=O)N[C@H](C(=O)N[C@@H](CCCCN)C(=O)NCC(=O)N[C@@H](CO)C(=O)N[C@@H](CO)C(=O)N[C@@H](CCCCN)C(=O)N[C@@H](CCCCN)C(N)=O)[C@@H](C)O
notes: Synthetic peptide; also called Formyl-hUbc12^1-26
Turning to B7, the Kd in experiment [1] is 9700 nM.

B8: hUbc12^Ac1-12 (Met) 5, 9 (peptide)
peptide: Ac-MIKL[S5]SLK[S5]QKK-NH2
modifications: staple 5-9
notes: also called Acetyl-hUbc12^1-12(5:9Staple)
For B8, the Kd in experiment [1] amounted to 153 nM.

B9: hUbc12^Ac1-12 (Met) Oct:But 6, 10 (peptide)
peptide: Ac-MIKLF[S8]LKQ[αMeNva(5-ylidene)]KK-NH2
modifications: staple 6-10
notes: Stapled synthetic peptide; by the label the octenyl- and butenyl-alanine residues stand in the reverse order of the But:Oct peptide
Turning to B9, the dissociation constant (Kd) in experiment [1] was 129 nM.
As for XIKLFSLKQQKK (N-terminal acetyl; norleucine at position 1 in place of Met; C-terminal amide, Synthetic peptide) [hUbc12^Ac1-12 (NorLeu)], the equilibrium dissociation constant (Kd) in experiment [1] came to 5600 nM.

A word on the Kd: it is the constant that tells how readily two partners part at equilibrium.
